Measured values from patent US10428140B2, “Anti-EphA4 antibody” (EISAI R&D MANAGEMENT CO., LTD., priority 2015, dated 2019).

T1: human EphA3 (Homo sapiens, UniProt P29320)
T1 construct: a protein of the extracellular region of each human Eph receptor fused with the SEAP protein and the His tag; made in house; host or cells: Expi293F cells (culture supernatant)
T1 sequence (P29320 21-541 limits assumed): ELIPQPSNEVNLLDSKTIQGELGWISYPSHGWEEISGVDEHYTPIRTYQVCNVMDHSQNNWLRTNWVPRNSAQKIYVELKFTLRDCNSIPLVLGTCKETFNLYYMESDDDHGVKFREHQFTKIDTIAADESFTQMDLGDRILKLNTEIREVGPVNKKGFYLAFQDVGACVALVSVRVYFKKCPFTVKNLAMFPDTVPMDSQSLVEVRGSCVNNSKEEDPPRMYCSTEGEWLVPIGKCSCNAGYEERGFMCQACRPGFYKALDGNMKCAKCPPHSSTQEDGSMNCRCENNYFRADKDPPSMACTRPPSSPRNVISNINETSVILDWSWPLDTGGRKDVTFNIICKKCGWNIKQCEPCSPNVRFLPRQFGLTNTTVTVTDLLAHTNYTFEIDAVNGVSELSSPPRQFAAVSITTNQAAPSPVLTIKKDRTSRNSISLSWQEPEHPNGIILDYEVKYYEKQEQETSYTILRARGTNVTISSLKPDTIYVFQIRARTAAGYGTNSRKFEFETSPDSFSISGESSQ

T2: human EphB4 (Homo sapiens, UniProt P54760)
T2 construct: a protein of the extracellular region of each human Eph receptor fused with the SEAP protein and the His tag; made in house; host or cells: Expi293F cells
T2 sequence (P54760 16-539 limits assumed): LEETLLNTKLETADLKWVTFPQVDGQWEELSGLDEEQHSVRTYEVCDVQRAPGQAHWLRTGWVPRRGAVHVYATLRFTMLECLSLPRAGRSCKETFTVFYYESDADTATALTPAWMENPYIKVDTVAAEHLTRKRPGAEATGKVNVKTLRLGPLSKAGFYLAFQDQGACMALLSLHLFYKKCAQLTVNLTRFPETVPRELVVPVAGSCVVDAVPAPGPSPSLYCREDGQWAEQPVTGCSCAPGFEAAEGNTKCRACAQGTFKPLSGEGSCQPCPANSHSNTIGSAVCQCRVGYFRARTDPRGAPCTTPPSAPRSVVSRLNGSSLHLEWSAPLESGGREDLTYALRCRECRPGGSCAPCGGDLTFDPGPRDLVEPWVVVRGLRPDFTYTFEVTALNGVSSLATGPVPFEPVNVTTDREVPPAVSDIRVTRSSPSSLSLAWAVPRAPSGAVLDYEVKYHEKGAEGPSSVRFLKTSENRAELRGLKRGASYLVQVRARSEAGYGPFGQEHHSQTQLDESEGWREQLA

T3: human EphB6 (Homo sapiens, UniProt O15197)
T3 construct: a protein of the extracellular region of each human Eph receptor fused with the SEAP protein and the His tag; made in house; host or cells: Expi293F cells
T3 sequence (O15197 32-594 limits assumed): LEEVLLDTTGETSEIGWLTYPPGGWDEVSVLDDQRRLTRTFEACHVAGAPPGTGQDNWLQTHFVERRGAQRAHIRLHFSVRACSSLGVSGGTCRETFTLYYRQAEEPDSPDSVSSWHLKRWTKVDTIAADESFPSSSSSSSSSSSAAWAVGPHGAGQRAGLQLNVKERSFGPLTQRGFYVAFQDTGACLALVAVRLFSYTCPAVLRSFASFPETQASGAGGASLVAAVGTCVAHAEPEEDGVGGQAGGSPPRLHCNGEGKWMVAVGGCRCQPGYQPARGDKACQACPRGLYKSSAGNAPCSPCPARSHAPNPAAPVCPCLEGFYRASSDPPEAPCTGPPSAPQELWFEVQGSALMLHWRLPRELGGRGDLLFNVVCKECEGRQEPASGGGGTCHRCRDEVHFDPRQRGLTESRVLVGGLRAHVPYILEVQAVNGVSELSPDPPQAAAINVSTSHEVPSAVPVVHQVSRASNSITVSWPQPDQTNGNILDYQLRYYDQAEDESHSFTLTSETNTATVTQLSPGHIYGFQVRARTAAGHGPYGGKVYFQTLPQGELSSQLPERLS


Assays:
Test in all cases: Selectivity ELISA of humanized antibodies for human Eph receptor
Format in all cases: binding
Conditions in all cases: coated protein 1 nM
human EphA3 = biological target: T1, human EphA3
Method in brief: (§1)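 Extracellular domains of human Eph receptors fused to SEAP-His were expressed in Expi293F cells for 5 days and captured from supernatant (1 nM final) on anti-His-coated plates. Humanized anti-EphA4 antibodies were incubated 1 h at room temperature, then HRP anti-IgG secondary, TMB substrate, and absorbance at 450 nm.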

human EphB4 = biological target: T2, human EphB4
Method in brief: as §1

human EphB6 = biological target: T3, human EphB6
Method in brief: as §1

hEphA3-SEAP-: absorbance at 450 nm, percentage with respect to hEphA4-SEAP-His as 100% (human EphA3) | hEphB4-SEAP-: absorbance at 450 nm, percentage with respect to hEphA4-SEAP-His as 100% (human EphB4) | hEphB6-SEAP-: absorbance at 450 nm, percentage with respect to hEphA4-SEAP-His as 100% (human EphB6) | Molecule
5.6% | 5.9% | 5.6% | 143 (antibody, V domains shown, synthetic humanized antibody heavy chain variable region sequence; synthetic humanized antibody light chain variable region sequence) VH: QIQLVQSGSELKKPGASVKVSCKASGYTFTDYSMHWVRQAPGQGLKWMGWINTETGEPTYADDFKGRFVFSLDTSVSTAYLQISSLKAEDTAVYYCARIPLYYYGSRYWYFDVWGQGTTVTVSS VL: DIQMTQSPSSLSASVGDRVTITCRASENIYRNLAWYQQKPGKAPKLLVYAATNLADGVPSRFSGSGSGTDYTLTISSLQPEDFATYYCQHFWGTPWTFGQGTKVEIK
5.8% | 5.9% | 5.9% | 152 (antibody, V domains shown, synthetic humanized antibody heavy chain variable region sequence; synthetic humanized antibody light chain variable region sequence) VH: QVQLVQSGSELKKPGASVKVSCKASGYTFTDYSMHWVRQAPGQGLEWMGWINTETGEPTYAQGFTGRFVFSLDTSVSTAYLQISSLKAEDTAVYYCARIPLYYYGSRYWYFDVWGQGTTVTVSS VL: DIQMTQSPSSLSASVGDRVTITCRASENIYRNLAWYQQKPGKAPKLLLYAATNLADGVPSRFSGSGSGTDYTLTISSLQSEDFATYYCQHFWGTPWTFGQGTKVEIK
6.1% | 6.0% | 6.2% | 153 (antibody, V domains shown, synthetic humanized antibody heavy chain variable region sequence; synthetic humanized antibody light chain variable region sequence) VH: QVQLVQSGSELKKPGASVKVSCKASGYTFTDYSMHWVRQAPGQGLKWMGWINTETGEPTYAQGFTGRFVFSLDTSVSTAYLQISSLKAEDTAVYYCARIPLYYYGSRYWYFDVWGQGTTVTVSS VL: DIQMTQSPSSLSASVGDRVTITCRASENIYRNLAWYQQKPGKAPKLLLYAATNLADGVPSRFSGSGSGTDYTLTISSLQSEDFATYYCQHFWGTPWTFGQGTKVEIK
6.9% | 7.4% | 7.1% | 151 (antibody, V domains shown, synthetic humanized antibody heavy chain variable region sequence; synthetic humanized antibody light chain variable region sequence) VH: QIQLVQSGSELKKPGASVKVSCKASGYTFTDYSMHWVRQAPGQGLKWMGWINTETGEPTYAQGFTGRFVFSLDTSVSTAYLQISSLKAEDTAVYYCARIPLYYYGSRYWYFDVWGQGTTVTVSS VL: DIQMTQSPSSLSASVGDRVTITCRASENIYRNLAWYQQKPGKAPKLLLYAATNLADGVPSRFSGSGSGTDYTLTISSLQSEDFATYYCQHFWGTPWTFGQGTKVEIK
6.2% | 6.4% | 6.4% | 154 (antibody, V domains shown, synthetic humanized antibody heavy chain variable region sequence; synthetic humanized antibody light chain variable region sequence) VH: QVQLVQSGSELKKPGASVKVSCKASGYTFTDYSMHWVRQAPGQGLEWMGWINTETGEPTYADDFKGRFVFSLDTSVSTAYLQISSLKAEDTAVYYCARIPLYYYGSRYWYFDVWGQGTTVTVSS VL: DIQMTQSPSSLSASVGDRVTITCRASENIYRNLAWYQQKPGKAPKLLLYAATNLADGVPSRFSGSGSGTDYTLTISSLQSEDFATYYCQHFWGTPWTFGQGTKVEIK
